This note sets out measurements from PMC4035259, “Structural Studies of an Anti-Inflammatory Lectin from Canavalia boliviana Seeds in Complex with Dimannosides” (PLoS ONE, 2014).

Data set [1] deals with Concanavalin A (Canavalia ensiformis). Put plainly: SAXS; in solution, 1, 5 and 10 mg/ml, buffers from pH 3 to pH 9 (JBS Solubility Kit); average molecular weight at each pH from I(0), BSA as size standard; dimer-tetramer equilibrium.
Data set [2] deals with the molecule itself. The data set is described as above.

Concanavalin A (natural protein): in data set [1], the stoichiometry N amounted to 4.

B1: Canavalia boliviana lectin (natural protein, UniProt A0A023GPI8 1-237, looked up)
chain: ADTIVAVELDTYPNTDIGDPSYPHIGIDIKSVRSKKTAKWNMQNGKVGTAHIIYNSVGKRLSAVVSYPNGDSATVSYDVDLDNVLPEWVRVGLSATTGLYKETNTILSWSFTSKLKSNSTHETNALHFMFNQFSKDQKDLILQGDATTGRDGNLELTRVSSNGSPQGSSVGRALFYAPVHIWESSAVVASFDATFTFLIKSSDSHPADGIAFFISNIDSSIPSGSTGRLLGLFPDAN
notes: Lectin from Canavalia boliviana seeds, 237 amino acids (full-length alpha-chain, 25,572 Da); the preparation is a combination of the alpha-chain and its fragments, beta-chain (residues 1-118) and gamma-chain (residues 119-237); also called Cbol; CboL; source: purified from Canavalia boliviana seeds (according to Moura et al., 2009)
Consider B1, for which, in data set [2], the “stoichiometry N” value turned out to be 4.

As a reminder, the stoichiometry N is the number of molecules, sites or subunits per partner or assembly.
